Test results published in publication PMC3875647 (Worm, 2013).

Target: the molecule itself
Assay: SEC-MALS

B1: MBP-AA-SAS-5 aa82-260 (domain or fragment, C. elegans, UniProt Q20010 82-260, looked up)
chain: HPALRQKTVAFGKTVNVSQTVEGTSRNSKKVLASTMSAQNTTTTEEQAAENWRDAMKTELQTIRTEIQEETARRQEELNAQNLVKMQELMSNFFQKITIPKQQAIEPVEKDKENFHESPRQSRQQKPASKIASAREVIKRDGVIPPEALTIIEQRLRSDPMFRQQIDNVLADAECDANR
stoichiometry N: 4

B2: MBP-AA-SAS5-NTD (SAS-5 residues 1–260 fused to MBP with a two-alanine linker) (domain or fragment, C. elegans, UniProt Q20010 1-260, looked up)
chain: MNNYDDLPCSIYFKKPTVQEFVDQPRVFEDSEVPAFQEVLQLPQERTKPPVPSTQPIVAAVEVAKKKSCLSAPKPRKEPPSHPALRQKTVAFGKTVNVSQTVEGTSRNSKKVLASTMSAQNTTTTEEQAAENWRDAMKTELQTIRTEIQEETARRQEELNAQNLVKMQELMSNFFQKITIPKQQAIEPVEKDKENFHESPRQSRQQKPASKIASAREVIKRDGVIPPEALTIIEQRLRSDPMFRQQIDNVLADAECDANR
stoichiometry N: 4
